Phosphatase activity ([32P] phosphate released from [^32 P]RCM-lysozyme) (pmol/min-pmol), phosphorylation of RCM-lysozyme with [γ-^32 P] ATP and activation of phosphatase activity on [^32 P]RCM-lysozyme by the phosphotyrosine peptide (fold higher than wildtype SHP-2) data for 3 molecules are collected here from patent US6156551.

Where no end group is shown, it is not given here. [ ]: non-standard residue; d: D form. pY = N[C@@H](Cc1ccc(OP(=O)(O)O)cc1)C(=O)O

Experiment [1] deals with [^32 P]reduced carboxyamidomethylated and maleylated-lysozyme (Gallus gallus (Chicken)) (UniProt P00698).
The target of experiment [2] is reduced carboxyamidomethylated and maleylated-lysozyme (not phosphorylated) (Gallus gallus (Chicken)) (UniProt P00698).
Experiment [3] has as its target T1, D61A activated mutant of SHP-2 (human).
T1 sequence: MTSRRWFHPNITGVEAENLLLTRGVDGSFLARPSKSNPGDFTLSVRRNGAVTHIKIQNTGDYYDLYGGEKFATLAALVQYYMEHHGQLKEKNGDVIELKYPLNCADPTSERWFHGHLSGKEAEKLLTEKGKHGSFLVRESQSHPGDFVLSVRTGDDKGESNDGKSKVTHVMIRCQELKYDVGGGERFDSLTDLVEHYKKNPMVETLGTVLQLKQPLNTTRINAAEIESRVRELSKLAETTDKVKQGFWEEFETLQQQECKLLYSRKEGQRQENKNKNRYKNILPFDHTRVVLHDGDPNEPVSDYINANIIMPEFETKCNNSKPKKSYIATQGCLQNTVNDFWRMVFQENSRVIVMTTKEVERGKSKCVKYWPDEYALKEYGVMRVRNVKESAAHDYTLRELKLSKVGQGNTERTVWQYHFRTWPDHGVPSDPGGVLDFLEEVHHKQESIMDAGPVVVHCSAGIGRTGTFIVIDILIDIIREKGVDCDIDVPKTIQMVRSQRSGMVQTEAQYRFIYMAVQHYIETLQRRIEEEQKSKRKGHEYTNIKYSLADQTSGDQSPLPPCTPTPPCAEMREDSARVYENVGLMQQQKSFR

For E76A activated mutant of SHP-2 (enzyme), the phosphatase activity ([32P] phosphate released from [^32 P]RCM-lysozyme) (pmol/min-pmol) in experiment [1] was 100.

For the molecule “recombinant full length Src kinase (enzyme)”, the phosphorylation of RCM-lysozyme with [γ-^32 P] ATP in experiment [2] is 2000 cpm/pmol.

B1: SHPS-1 phosphotyrosine peptide DIT[pY]…[pY]ASIQTS-NH2 (peptide)
peptide: DIT[pY]ADLNLPKGKKPAPQAAEPNNHTE[pY]ASIQTS-NH2
modifications: N-terminus assumed
SMILES: CC[C@H](C)[C@H](NC(=O)[C@H](CO)NC(=O)[C@H](C)NC(=O)[C@H](Cc1ccc(OP(=O)(O)O)cc1)NC(=O)[C@H](CCC(=O)O)NC(=O)[C@@H](NC(=O)[C@H](Cc1c[nH]cn1)NC(=O)[C@H](CC(N)=O)NC(=O)[C@H](CC(N)=O)NC(=O)[C@@H]1CCCN1C(=O)[C@H](CCC(=O)O)NC(=O)[C@H](C)NC(=O)[C@H](C)NC(=O)[C@H](CCC(N)=O)NC(=O)[C@@H]1CCCN1C(=O)[C@H](C)NC(=O)[C@@H]1CCCN1C(=O)[C@H](CCCCN)NC(=O)[C@H](CCCCN)NC(=O)CNC(=O)[C@H](CCCCN)NC(=O)[C@@H]1CCCN1C(=O)[C@H](CC(C)C)NC(=O)[C@H](CC(N)=O)NC(=O)[C@H](CC(C)C)NC(=O)[C@H](CC(=O)O)NC(=O)[C@H](C)NC(=O)[C@H](Cc1ccc(OP(=O)(O)O)cc1)NC(=O)[C@@H](NC(=O)[C@@H](NC(=O)[C@@H](N)CC(=O)O)[C@@H](C)CC)[C@@H](C)O)[C@@H](C)O)C(=O)N[C@@H](CCC(N)=O)C(=O)N[C@H](C(=O)N[C@@H](CO)C(N)=O)[C@@H](C)O
Consider B1, for which the activation of phosphatase activity on [^32 P]RCM-lysozyme by the phosphotyrosine peptide (fold higher than wildtype SHP-2) in experiment [3] worked out at 5.
